According to publication PMC5175346:

How the values were obtained:
Test in all cases: fluorescence anisotropy
PriA wt = PriA wt (Escherichia coli, UniProt P17888 1-732)
PriA W333A = PriA W333A (Escherichia coli, UniProt P17888 1-732, W333A)
PriA Y335A = PriA Y335A (Escherichia coli, UniProt P17888 1-732, Y335A)
PriA R334A = PriA R334A (Escherichia coli, UniProt P17888 1-732, R334A)
PriA K328A = PriA K328A (Escherichia coli, UniProt P17888 1-732, K328A)
PriA Q330A = PriA Q330A (Escherichia coli, UniProt P17888 1-732, Q330A)
PriA Q329A = PriA Q329A (Escherichia coli, UniProt P17888 1-732, Q329A)

Measured: binding result

B1: two-stranded fork, structure #1 (1b-98/3L-98) (structured_DNA)
DNA 1: GCAAGCCTTCTACAGGTCGACCGTCCATGGCGACTCGAGACCGCAATACGGATAAGGGCTGAGCACGCCGACGAACATTCACCACGCCAGACCACGTA
DNA 2: GACTATCTACGTCCGAGGCTCGCGCCGCAGACTCATTTAGCCCTTATCCGTATTGCGGTCTCGAGTCGCCATGGACGGTCGACCTGTAGAAGGCTTGC
binds: all assays above
